In paper PMC3939493, “Structure of the SAS-6 cartwheel hub from Leishmania major” (eLife, 2014):
Numbering of substitutions follows the chain as printed. Numbers in names are those of the source.

Experiments:
SAS-6 [1] = molecular target: T1, SAS-6 (Leishmania major, UniProt E9AFQ5); test: SEC-MALS of purified protein with […] PK9119 (oligomerization reduced); type: biochemical
T1 construct: gene LMJF_35_4280; SAS-6^97–424
T1 sequence (E9AFQ5 97-424): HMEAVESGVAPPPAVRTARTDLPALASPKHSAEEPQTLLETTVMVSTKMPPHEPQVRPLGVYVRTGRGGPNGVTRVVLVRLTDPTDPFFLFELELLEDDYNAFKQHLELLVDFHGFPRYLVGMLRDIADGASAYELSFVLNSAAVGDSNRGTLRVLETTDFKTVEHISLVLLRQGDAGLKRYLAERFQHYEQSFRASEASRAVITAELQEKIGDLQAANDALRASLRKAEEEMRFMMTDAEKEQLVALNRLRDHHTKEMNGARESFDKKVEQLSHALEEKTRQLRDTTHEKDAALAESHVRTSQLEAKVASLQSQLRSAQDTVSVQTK

SAS-6 [2] = molecular target: T2, SAS-6 (Danio rerio, UniProt Q7ZVT3, F131D); test: SEC-MALS of purified protein with […] PK9119 (oligomerization reduced, less than for L. major); type: biochemical
T2 construct: gene sass6; Dr SAS-6^1–326
T2 sequence (Q7ZVT3 1-326 F131D): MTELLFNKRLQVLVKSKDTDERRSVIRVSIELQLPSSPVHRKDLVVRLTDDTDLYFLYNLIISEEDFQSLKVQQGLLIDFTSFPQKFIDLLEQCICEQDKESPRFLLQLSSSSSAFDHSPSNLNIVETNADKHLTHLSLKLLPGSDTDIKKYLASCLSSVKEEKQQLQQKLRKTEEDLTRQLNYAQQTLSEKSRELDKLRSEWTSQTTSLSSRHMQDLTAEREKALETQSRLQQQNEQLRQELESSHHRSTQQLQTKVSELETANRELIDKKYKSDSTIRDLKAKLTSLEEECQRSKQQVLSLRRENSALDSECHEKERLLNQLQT

[3] = molecular target: L. major SAS-6^97–274 Y215K mutant (Leishmania major); test: AUC; sedimentation equilibrium; 100, 200 and 400 µM protein; 11300, 17000 and 21200 rpm; 4°C; 50 mM Tris, 100 mM NaCl, pH 8.0; monomer-dimer equilibrium model (dimer to monomers)
[4] = molecular target: L. major SAS-6^97–274 wild-type (Leishmania major); test: as above
[5] = molecular target: L. major SAS-6^97–320 F257E (Leishmania major); test: crystal structure; L. major SAS-6^97–320 F257E, sitting drop, 100 mM NaCitrate pH 5.85, 21% PEG-3000, 16°C; 94.7 mg/ml protein; 2.9 Å; four molecules in the asymmetric unit
[6] = molecular target: L. major SAS-6^97–424 F257E mutant (Leishmania major); test: SEC-MALS; Superdex S-200 10/300, 50 mM bisTris, 100 mM NaCl, pH 7.0, 0.126% DMSO, with or without 1 mM PK9119; L. major constructs injected at 25 mg/ml (675 µM monomer), zebrafish constructs at 10 mg/ml (263 µM monomer); peak concentrations about 10-fold lower
[7] = molecular target: L. major SAS-6^97–424 wild-type (Leishmania major); test: as above
[8] = molecular target: the molecule itself; test: as above

## CCc1cc(Br)cc2c(CN(C)C)c[nH]c12 [PK9119, (5-bromo-7-ethyl-1H-indol-3-ylmethyl)-dimethyl-amine]
SAS-6 [1]
  SEC-MALS of purified protein with 1 mM PK9119 (oligomerization reduced): a decrease in the analysed mass from MALS, demonstrating that PK9119 partially affects head-to-head dimerization
SAS-6 [2]
  SEC-MALS of purified protein with 1 mM PK9119 (oligomerization reduced, less tha): zebrafish SAS-6 oligomerization was also affected by the presence of PK9119, although to a lesser extent

## L. major SAS-6^97–274 Y215K mutant (domain or fragment)
[3]
  Kd: 190 µM

## L. major SAS-6^97–274 wild-type (domain or fragment)
[4]
  Kd: 622 µM

## L. major SAS-6^97–320 F257E (domain or fragment)
[5]
  stoichiometry N: 8

## L. major SAS-6^97–424 F257E mutant (domain or fragment)
[6]
  stoichiometry N: 2

## L. major SAS-6^97–424 wild-type (domain or fragment)
[7]
  stoichiometry N: 6

B1: Danio rerio SAS-6^1–326 F131D mutant (domain or fragment)
chain: GPHMTELLFNKRLQVLVKSKDTDERRSVIRVSIELQLPSSPVHRKDLVVRLTDDTDLYFLYNLIISEEDFQSLKVQQGLLIDFTSFPQKFIDLLEQCICEQDKESPRFLLQLSSSSSAFDHSPSNLNIVETNADKHLTHLSLKLLPGSDTDIKKYLASCLSSVKEEKQQLQQKLRKTEEDLTRQLNYAQQTLSEKSRELDKLRSEWTSQTTSLSSRHMQDLTAEREKALETQSRLQQQNEQLRQELESSHHRSTQQLQTKVSELETANRELIDKKYKSDSTIRDLKAKLTSLEEECQRSKQQVLSLRRENSALDSECHEKERLLNQLQT
notes: Dimer by SEC-MALS; source: E. coli BL21 Rosetta, purified (NiNTA, proteolytic tag cleavage, SEC, ion exchange); not shown: His tag, N-terminal, cleaved
[8]
  stoichiometry N: 2

B2: Danio rerio SAS-6^1–326 wild-type (domain or fragment)
chain: B1 chain with D134F
notes: also called zebrafish SAS-6; source: E. coli BL21 Rosetta, purified (NiNTA, proteolytic tag cleavage, SEC, ion exchange); not shown: His tag, N-terminal, cleaved
[8]
  binding result: binds
